Drawing on ChEMBL document CHEMBL3864159, “Variation of the aryl substituent on the piperazine ring within the 4-(piperazin-1-yl)-2,6-di(pyrrolidin-1-yl)pyrimidine scaffold unveils potent, non-competitive inhibitors of the inflammatory caspases” (Bioorg Med Chem Lett, 2016), this text covers Vmax and Km for one protein.

Compound in series [1]: c1ccc(CCN2CCN(c3cc(N4CCCC4)nc(N4CCCC4)n3)CC2)cc1
In words: Non-competitive inhibition of human recombinant N-terminal His-tagged DTT-activated caspase-1 expressed in Escherichia coli assessed as enzyme Vmax at 50 nM using Ac-WEHD-AMC as substrate preincubated for 30 mins followed by substrate addition by Michaelis-Menten plot analysis (reference value: 13162 +/- 1446 RFU/min).

Compound in series [2]: c1ccc(CCN2CCN(c3cc(N4CCCC4)nc(N4CCCC4)n3)CC2)cc1
In words: Non-competitive inhibition of human recombinant N-terminal His-tagged DTT-activated caspase-1 expressed in Escherichia coli assessed as enzyme Vmax at 500 nM using Ac-WEHD-AMC as substrate preincubated for 30 mins followed by substrate addition by Michaelis-Menten plot analysis (reference value: 13162 +/- 1446 RFU/min).

Compound in series [3]: c1ccc(CCN2CCN(c3cc(N4CCCC4)nc(N4CCCC4)n3)CC2)cc1
Put plainly: Non-competitive inhibition of human recombinant N-terminal His-tagged DTT-activated caspase-1 expressed in Escherichia coli assessed as enzyme Km at 50 nM using Ac-WEHD-AMC as substrate preincubated for 30 mins followed by substrate addition by Michaelis-Menten plot analysis (reference value: 8.18 +/- 2.9 uM).

Compound in series [4]: c1ccc(CCN2CCN(c3cc(N4CCCC4)nc(N4CCCC4)n3)CC2)cc1
In words: Non-competitive inhibition of human recombinant N-terminal His-tagged DTT-activated caspase-1 expressed in Escherichia coli assessed as enzyme Km at 500 nM using Ac-WEHD-AMC as substrate preincubated for 30 mins followed by substrate addition by Michaelis-Menten plot analysis (reference value: 8.18 +/- 2.9 uM).

One may read the Km as the substrate concentration at which the rate is half of its maximum.

B1: Caspase-1 (Homo sapiens), P29466 (protein)
chain: MADKVLKEKRKLFIRSMGEGTINGLLDELLQTRVLNKEEMEKVKRENATVMDKTRALIDSVIPKGAQACQICITYICEEDSYLAGTLGLSADQTSGNYLNMQDSQGVLSSFPAPQAVQDNPAMPTSSGSEGNVKLCSLEEAQRIWKQKSAEIYPIMDKSSRTRLALIICNEEFDSIPRRTGAEVDITGMTMLLQNLGYSVDVKKNLTASDMTTELEAFAHRPEHKTSDSTFLVFMSHGIREGICGKKHSEQVPDILQLNAIFNMLNTKNCPSLKDKPKVIIIQACRGDSPGVVWFKDSVGVSGNLSLPTTEEFEDDAIKKAHIEKDFIAFCSSTPDNVSWRHPTMGSVFIGRLIEHMQEYACSCDVEEIFRKVRFSFEQPDGRAQMPTTERVTLTRCFYLFPGH
As for B1, the Vmax in series [1] was determined as 4440 RFU/min; in series [2], 2840 RFU/min. The Km came to 5.76 µM in series [3] and 5.75 µM in series [4].
